1 molecule from patent publication US20200174002A1 (ONCOTHERAPY SCIENCE, published 2020) can be followed below.

Experiment [1] has as its target T1, full length FZD10 protein (human) (human, UniProt Q9ULW2 21-581).
T1 construct: Live cells in flow cytometry; formalin-fixed paraffin sections in IHC
T1 sequence: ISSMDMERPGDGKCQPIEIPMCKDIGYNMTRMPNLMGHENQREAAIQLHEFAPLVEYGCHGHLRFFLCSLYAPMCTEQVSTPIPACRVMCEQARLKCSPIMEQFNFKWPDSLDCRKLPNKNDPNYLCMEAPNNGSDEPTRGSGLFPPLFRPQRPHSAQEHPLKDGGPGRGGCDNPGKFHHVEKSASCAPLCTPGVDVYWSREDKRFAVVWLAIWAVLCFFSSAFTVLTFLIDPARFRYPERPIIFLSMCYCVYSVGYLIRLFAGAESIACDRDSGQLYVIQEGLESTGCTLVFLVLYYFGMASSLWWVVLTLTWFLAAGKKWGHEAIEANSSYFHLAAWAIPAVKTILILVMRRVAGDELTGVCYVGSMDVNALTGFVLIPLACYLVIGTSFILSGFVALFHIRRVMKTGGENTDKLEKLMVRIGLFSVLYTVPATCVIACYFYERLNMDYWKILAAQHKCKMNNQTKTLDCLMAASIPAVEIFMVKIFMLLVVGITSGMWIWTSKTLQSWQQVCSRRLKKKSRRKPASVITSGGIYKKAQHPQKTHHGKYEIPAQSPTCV
Nature of the experiment: immunohistochemical staining, paraffin section of a clinical lung cancer specimen. The procedure:
For antigen retrieval treatment, sections immersed in Antigen Retrieval Solution pH9 (Nichirei Biosciences Inc.) were incubated at 125° C. for 30 seconds for FZD10/DLD1 and Mock/DLD1, and at 95° C. for 40 minutes for SYO1, T.T, H727, LoVo, COLO201, and clinical specimens. After incubation, they were allowed to stand at room temperature for 20 minutes, and then washed with running water for five minutes. The sections were immersed in 3.0% hydrogen peroxide for ten minutes to block endogenous peroxidases, and washed with Wash Buffer (TBS-T(Takara Bio)) for five minutes three times. Furthermore, to block nonspecific reactions, an appropriate amount of Protein Block Solution (Dako) was added dropwise onto the sections, and they were allowed to stand for ten minutes. […]
The specificity of the anti-FZD10 antibody of the present invention (10A8H4G4) in immunohistochemical staining was evaluated using paraffin sections prepared from mouse xenograft tumors of cancer cell lines and clinical lung cancer specimens. The expression of FZD10 protein and RNA in paraffin sections prepared from mouse xenograft tumors of SYO-1 and COLO201 and in cancerous and non-cancerous regions of clinical lung cancer specimens 1 to 6 was detected by immunohistochemical staining and real-time PCR, respectively, and the results are shown in FIG. 4.

Experiment [2] addresses T2, soluble FZD10 protein without the signal peptide (the region of amino acids 21 to 161) (human, UniProt Q9ULW2 21-161).
T2 construct: Immunogen and ELISA screening antigen; also called recombinant human FZD10 protein; N-terminal extracellular domain peptide of FZD10
T2 sequence: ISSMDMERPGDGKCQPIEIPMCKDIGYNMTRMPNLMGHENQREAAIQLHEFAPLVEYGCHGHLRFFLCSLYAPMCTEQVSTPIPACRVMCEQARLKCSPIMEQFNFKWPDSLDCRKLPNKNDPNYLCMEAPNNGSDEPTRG
The experiment is described as follows: ELISA screening of hybridomas on soluble FZD10 protein. (In general: An ELISA detects its analyte on a solid surface through an enzyme-linked reagent.)

B1: anti-FZD10 antibody (10A8H4G4) (antibody, V domains shown)
VH: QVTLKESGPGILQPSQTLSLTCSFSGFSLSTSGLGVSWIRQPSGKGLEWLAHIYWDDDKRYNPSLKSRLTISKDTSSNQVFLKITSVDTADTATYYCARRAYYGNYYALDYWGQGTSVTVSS
VL: DIVMTQSPSSLTVTAGEKVTMSCKSSQSLLNSGNQKNYLTWYQQKPGQPPKLLIYWASTRKSGVPDRFTGSGSGTDFTLTISSVQAEDLAVYYCQNDYSYPVTFGAGTKLELKR
notes: Mouse monoclonal antibody from hybridoma 10A8H4G4, purified from culture fluid on a Protein A column; it was detected with anti-mouse IgG (H+L); also called clone 10A8H4G4; FZD10Ab(10A8H4G4)
In the case of B1, the binding result in experiment [1] and in experiment [2] was “binds” throughout.
